# Reference: a protein production outcome set (Wang et al. 2014)
# Assay: label from the status in PepcDB records
# 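Also: failed if final PepcDB status was selected cloned or expressed and not failed if soluble or beyond.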
row,Sequence,protein production
1,MSWKIIEKYRRILAQEEGNSPKRRGGKLTVCLVYPNRYGVAMSNLGFQAVHALLNAESDILCERAFLPDPDDLREYRRSGARLLSLESQEPLSSFDIIAFSVSFESDYLNIPVIFDLAGIPALAAERTGSHPLVMGGGAALFLNPEPVADFLDLIVVGEGEAILPTFLDHIRADGIGDRAMFLAGVAGLPGIYVPSLYATEYDGARLVSREAKDGAPEQVKRIWMAEPDGRATVSEILTPGTEFSDMYLVEVSRGCGRGCRFCAAGFIYHPYRQRSLDAVKAAVAEGLSHRRKIGLVGAAVSDFREIGELCRHILAEGGTVSVSSLRIDRLDEGMIEVLKASGHKTVALAPEGGSQRIRDLINKNLTEEQILAACDLLIGHDILNLKLYFIIGLPTETMDDLEEMALLVEKIRKRVIAAARKNKRLGEIILSVNPFVPKPFTPFQWCGMEDTPSLEKKLKYLQQTVGRLSNVRLIAESPKDAWLQALLSRGDRRLSGFLLRAAELGNWKRAAREFPVDTDFLVHRTIPLDEMLPWDVIASADAERLRREYLKATPPRLEHHHHHH,failed
2,MSWLLVIAAGFLEVVWASGLKHADSFVDWLMIFVLIAVSFIMLIRSYRNIPMASAYTVFVGIGTAGTYVTGIFMGETFSGGQIFFLIVLLGGIIGMKMFTKENNAQSGGDE,failed
3,MSWMQNLKNYQHLRDPSEYMSQVYGDPLAYLQETTKFVTEREYYEDFGYG,failed
4,MSWWQDMDQRGGVSSPSGALASAEPAPASVTLAELLHLVQKGQEVPGLEKRHITATHGEPTASLLPRRPKPWEDAGSAASPCTIALDTRTQPPTIEERSRGSPAAQLDGGPRVS,failed
5,MSYILIVTIAIVIFSLIFDFINGFHDTANAVATAVSTRALTPRRAILLAAVMNFIGALTFTGVAGTITKDIVDPFKLQHGLVVVLAAIIAAIIWNLITWLYGIPSSSSHALIGSIAGAAIASKGSFAVLHYQGFTKIIIVLIISPIIAFCVGYMMYTIVKIVFKNSNLTRTNRNFRFFQIFTAALQSFSHGTNDAQKSMGIITLALIVGNLQDGSNVEPQVWVKVVCATAMGLGTAVGGWKIIKTVGGNIMKIRPANGAAADISSALTIFVASSLHFPLSTTHVVSSSILGVGASNRAKGVKWSTAQRMVVTWVITLPISAVLAAIIYFIIHLFLK,failed
6,MSYLSQAPLYSSIPRKNCPIAWEGQFTRGDKGTSTISFEAVASHDLWIWHTFFGCASTLNDINFLDRSPVFDDIEQGNTPRVNFFVYQRQYNMAYYLADGIYPSYPTFVKSIRLPQSEPDKLFVQLQEGCRKDIERAFGVLHARFKIIWNIADLAIIMRSCIILHNMIVENERDTYAQHWTDYDQSKESGSSTPQPFSTEVLHAFANHVHARSKLRDSICTS,not failed
7,MSYLVVTIKVILITGMPGSGKSEFAKLLKERGAKVIVMSDVVRKRYSIEAKPGERLMDFAKRLREIYGDGVVARLCVEELGTSNHDLVVFDGVRSLAEVEEFKRLLGDSVYIVAVHSPPKIRYKRMIERLRSDDSKEISELIRRDREELKLGIGEVIAMADYIITNDSNYEEFKRRCEEVTDRVLKNG,failed
8,MSYQNANYSAFYVSEPFSESNLGANSTHDFVYYNMLRMWKGEDNSFPFNDAHDKTYNVRDGSDWEKTLKPRLHTRLDNSKNIILFLSSITANSRALREEMNYGIGTKGLPVIVIYPDYDKKSDIVDSNGNFKKQIKDLWDKLPAFRDNMSSVATLHIPCTKSVIISALNNEDFMVNTMADAEKYYYKP,not failed
9,MSYQPTSLTVASYNLRNANGSDSARGDGWGQRYPVIAQMVQYHDFDIFGTQECFLHQLKDMKEALPGYDYIGVGRDDGKDKGEHSAIFYRTDKFDIVEKGDFWLSETPDVPSKGWDAVLPRICSWGHFKCKDTGFEFLFFNLHMDHIGKKARVESAFLVQEKMKELGRGKNLPAILTGDFNVDQTHQSYDAFVSKGVLCDSYEKCDYRYALNGTFNNFDPNSFTESRIDHIFVSPSFHVKRYGVLTDTYRSVRENSKKEDVRDCPEEITIKAYEARTPSDHFPVKVELVFDLEHHHHHH,not failed
10,MSYQTWWSRVQVVDPEQLLDAVEEWDRPLVALTTPGTLARGLSLQVFRRIAPDEKNLLIIPHFCISGTIEKRLLEEGCCDENKITNENESIRIRCKTMNLHFGFHADTRDLLLFFSQWKPSCIVLVHGEGEKMDYLARVVQEEWGIQCWVPKEEQWITWKPNLTKSQ,failed
11,MSYSEIAACLAYAVSVWLAARNNVHTWWIGIIGSILYGWVFWSVQLYADVTLQLFFIATSITGWIHWLKGQGGDILPVRRTQASHFFLLLLCAVVVAGGYGFLLHTFTNAWAPWLDSLILTFSVLAQFMLMGRRIENWFVWLAVNTLAVPLYMTRGLNLTAGLYFLFWINAWHGLYQWRKELQTS,failed
12,MSYSVTLTGPGPWGFRLQGGKDFNMPLTISRITPGSKAAQSQLSQGDLVVAIDGVNTDTMTHLEAQNKIKSASYNLSLTLQKSKRPIPISTTAPPIQSPLPVIPHQKVVANSPANADYQERFNPSVLKDSALSTHKPIEVKGLGGKATIIHAQYNTPISMYSQDAIMDAIAGQAQAQGSDFSGASPLASLPVKDLAVDSASPVYQAVIKTQSKPEDEADEWARRSSNLQSRSFRILAQMTGTEYMQDPDEEALRRSSTPIEHAPVCTSQATSPLLPASAPSPAAASPIAASPTLATAAAAHAVAASAAGPASSPVENPRPQASAYSPAAATSPAPAAHTSYSEGPAAPAPKPRVVTTASIRPSVYQPVPASPYSPSPGANYSPTPYTPSPAPAYTPSPAPTYTPSPAPTYSPSPAPAYTPSPAPNYNPTPSAAYSGGPSESASRPPWVTDDSFSQKFAPGKSTTSVSKQTLPRGAPAYNPTGPQVTPLARGTFQRAERFPASSRTPLCGHCNNVIRGPFLVAMGRSWHPEEFNCAYCKTSLADVCFVEEQNNVYCERCYEQFFAPICAKCNTKIMGEVMHALRQTWHTTCFICAACKKPFGNSLFHMEDGEPYCEKDYINLFSTKCHGCDFPVEAGDKFIEALGHTWHDTCFICAVCHVNLEGQPFYSKKDKPLCKKHAHAINV,failed
13,MTAADPGTRIVRWALVAGAVAGLLAVMAGAFGAHGLRHVVSERGLEVFQTAVSYQMYHALALVAVSLMPALGLSGNLLTLACGFWLAGMMLFSGSLYLLVLTGIHWLGPVTPVGGVCFMVGWVLLIVAALKK,failed
14,MTAAPGTSMATPHVAGIAALLLQAHPSWTPDKVKTALIETADIVKPDEIADIAYGAGRVNAYKAINYDNYAKLVFTGYVANKGSQTHQFVISGASFVTATLYWDNANSDLDLYLYDPNGNQVDYSYTAYYGFEKVGYYNPTDGTWTIKVVSYSGSANYQVDVVSDGSLSQLEHHHHHH,not failed
15,MTAETPSLTSPQAQRILRLYHLYRLTIGVVLVLLISSSLETELLQLANPNLFRSGCWLYLVFNILVVVLLERPSRQAQLFGLAMTDAIMLSGLFYAAGGPSSGIGNLLIASVAISNVLLRGRIGLLIAAVSAIGIIYLTFYISFGTPSVSNDYVQAGSLGALCFAAALLVQALTARLQVSEGLAEQRAADVDSLEELNALILQRMRTGIVVLDARRQVVLANQGALTLLGHERLVGQVIDAYSPQLVERLRQWLINPIMVPRSITTSSIGPVLQPSFAALNRGDQRQTLIFLEDLSQIAHQAQQLKLAALGRLTAGIAHEIRNPLGAVSHAAQLLNESEDLSAPDRRLGQIIHDQSQRIDRVIENVLQLSRRREAQPELLDLKVWLENFVSDFRSSAAADQSIHVQISSGMLTTRMDAGQLTQIITNLVQNGLRYSRRNHPSAQVWLNLHHDRESDLPILEVLDDGPGVSEQHLSKIFEPFFTTESKGTGLGLYLSRELCESNQAHLEYIPRPHDGGSCLRITFAHPFKTS,failed
16,MTAFYLLVPFLFIRFIFLSLLDRKATGRAAHFASMQGKEIIAYYLYQLSTLMLLIVPFFLKVSLHFSSFFYLGLGAYLLGSVLLFLVIKDFANPDEKGLNTKGLYALSRHPMYIAYFVLFLGVAMLTQSLTLLIFLAIFQLSAHFIILAEERECLIKFGAAYQEYQKRVRMYL,failed
17,MTAGWCCRTVRAALFAAVCVLLAALGHVMMSGTAVPWWAMTVAALVTGGTGWCLAGRERGLALIVSVVVVAQGALHSAFSVAQSAAHSAGSVGADSMPKGSMGSDMSSVHMDSVHMDSMDMGNMGAGHLAHLGHDMGGGSSFGMLAAHSAAALLCGLWLAYGERAAFRILRALAGRLAAPLRLLLALPTPAHRPRIRVRRGSSDRTPRRLLLVHAITSRGPPVGTAVI,failed
18,MTAIPRAPLILGLAGLIPFLWGALTYLSPAAQAWGAAALGPRFVGPYVQIAYGQIILAFMSGVLWGFATKADDRRAATGYVLAVLPALWAFFMTGGGPTGAAINLIFGFLGLLMLDAAFASWGLAPVWWMRLRLLLTAVVTICLAVGAFL,failed
19,MTALLTRVWACTLCQAELPFPPKPILQASSQARILIAGQAPGVKTHHKGIPFDDASGERLRAWLNVSREQFYDPALFAIVPMGFCFPGNIERKGKKQGDKPPRPECAATWHKALLALMPNIELVIVLGQYAMDYHLSRLLMDNMHKNRGFNSTPLAAAHTIGKATSNKKITLTQAVEQWPLYWPQLMVMPHPSPRNNLWLKQHPEFEQHLIPTLRSRISSLLT,failed
20,MTANAYVRARIDQTLKDDATAVLDRLGLTVSDVMRMMLTRIAREKALPIELTQPNAETLAAIEEARAIAAAGRNRFGTSEALFEALDAGKRLEHHHHHH,not failed
21,MTAPASSLDRFFGLRARGTTVRREILAGTTTFMTMAYILFVNPEILGSAAGAGHFAAILTSTALVAAVMTAAMGLFANLPLALASGMGLNAVVAFGLVLGKKLTYPQAMGVIVAEGVLITLLVATGLRQAVVRAVPMTLKRAIGIGIGLFLAIIGFKAAGFISAGGALLQLGPEGAAGRLTGFPVVLFALTLVFTAWLVSRGVRGALLIGIAVSTAVAVTAKAAFGGAGFAPHVANLPSSIFGLPDFSMLGQVDFSFVAVLGPLAASLAVFSIMLSDFFDTVGTVVAVGQEAKYLDEQGNFPRASTVLMVDSLAAIAGGLAGASSATTYVESAAGAASGGRTGLTSVTTAALFALCLFISPLAGIVPPQATGAVLVLVGYMMMRDVGAIAWDDPSESIPAFLTVTVMPFTYSITNGIGAGFVSYVLLKLAGGKAREVHPLMIGASVAFVVYFAIGG,failed
22,MTAPDRSPPRYKSDLIYGLNDRPHFSAAIFAALQHVLASFVGIISPTLIFGGVLGLESELPYLISMALFVSGLGTFVQARRLGPIGSGLLCVQGTSFSFISVLLSAGFMVKGRGGDTNEILSTIFGICFVAAFIEMFLSQFIGKLRKLITPVVTGTIITLMGLSLIKVAVTDMAGGYGASDLGAASNLGLAALVLLTIVVLNRFNHPMLRLGSIVIGLTLGFVVAWMLGRVDMAAMPEVPLVSVPVPFKYGFSFDLIAFIPLAVIFLISPLEAAGDLTANSMISQQPVKGPLYIKRIKSGLLADGFNSAVAAVFNSLPMVTFAQNNGVIQLTGVASRYVAYFIAGLLVLLGLFPVIGAVLQLMPKPVLGGATLIMFGTVAVAGIKILAEAGLHRRNVLIVAISLGMGLGVAAVPEVLRELPKALHNIFESPITVGAFCAIFLNIFLPEEFLELEEDEFDPEAATLKVMQDPDMSGKANS,failed
23,MTAQLISPTIHGILDYLLGAVLVVAPSVLGLPTGPAVIAYAVGGAHLAMSLLTGYAPGALRVIPFWAHGAVEAAGWAGLLVFLGLLTAPADGLFLASGVGILVVSALTDYGVETDGVRLRARRHAHARP,failed
24,MTAQPLLVFDFDGVIVDGMAEYWWSAWMAAQRLNAEPQGLGSDAVPQGFRRLRPWVHHGWEMVLLAAEMPQLDPERWVVDYATEQDMALQRRGWSASLLQEALDQTRQQAVSSDRAAWLGLHQPFPGLVDRLQAFQEEGVDWAVLTTKTAAFTAELLESLGLRPWRLDGREAGPKPEVLLRLQRERVLAGFVEDRRATLETVRDTDGLQSLPCWLASWGYLKPSDREDLPRGIQLIDQDRLATPLAQWP,failed
